Results on five molecules are retold here after patent publication US20120149881A1.

This experiment deals with human IgE with the M1′ sequence (long form of membrane IgE) expressed on transduced BJAB or Daudi cells (human), P01854. In words: cell-based or functional assay.
human IgE with the M1′ sequence (long form of membrane IgE) expressed on transduced BJAB or Daudi cells (human), P01854, sequence (P01854 116-546 I515L limits assumed): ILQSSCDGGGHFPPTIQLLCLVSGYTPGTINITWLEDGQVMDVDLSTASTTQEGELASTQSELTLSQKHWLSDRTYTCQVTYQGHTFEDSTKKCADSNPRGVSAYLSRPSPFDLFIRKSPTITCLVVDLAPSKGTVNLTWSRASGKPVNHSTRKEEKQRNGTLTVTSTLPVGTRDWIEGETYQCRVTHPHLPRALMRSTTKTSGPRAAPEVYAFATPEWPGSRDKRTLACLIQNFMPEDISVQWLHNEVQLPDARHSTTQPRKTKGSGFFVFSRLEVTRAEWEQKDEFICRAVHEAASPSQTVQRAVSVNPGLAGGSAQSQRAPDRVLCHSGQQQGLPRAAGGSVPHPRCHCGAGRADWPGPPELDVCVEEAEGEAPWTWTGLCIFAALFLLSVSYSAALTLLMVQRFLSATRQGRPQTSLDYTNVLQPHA

B1: murine anti-IgE/M1′ antibody 7A6 (antibody)
heavy: QVQLQQSGAELVRPGASVTLSCKASGYTFIDYEMHWVKQTPVHGLEWIGAIDPETGTTAYNQKFKGKATLTAAKSSSTAYMELRSLTSEDSAVYYCTRLRPHYDYDNAMDSWGQGTTLTVSSASTKGPSVYPLAPGSAAQTNSMVTLGCLVKGYFPEPVTVTWNSGSLSSGVHTFPAVLQSDLYTLSSSVTVPSSTWPSETVTCNVAHPASSTKVDKKIVPRDCGCKPCICTVPEVSSVFIFPPKPKDVLTITLTPKVTCVVVDISKDDPEVQFSWFVDDVEVHTAQTQPREEQFNSTFRSVSELPIMHQDWLNGKEFKCRVNSAAFPAPIEKTISKTKGRPKAPQVYTIPPPKEQMAKDKVSLTCMITDFFPEDITVEWQWNGQPAENYKNTQPIMDTDGSYFVYSKLNVQKSNWEAGNTFTCSVLHEGLHNHHTEKSLSHSPGK
light: DIVMSQSPSSLTVSVGEKVTLSCKSSQTLLYSTNQKNYLAWYQQKPGQSPKLLIYWASTRESGVPDRFTGSGSGTDFTLTISSVKAEDLAVYYCQQYYSYPYTFGGGTKVEIKRADAAPTVSIFPPSSEQLTSGGASVVCFLNNFYPKDINVKWKIDGSERQNGVLNSWTDQDSKDSTYSMSSTLTLTKDEYERHNSYTCEATHKTSTSPIVKSFNRNEC
Regarding B1, the apoptosis of Daudi-IgE/Long cells (Annexin V/PI, 72 h), no crosslinker; concentration at which seen is above 10 µg/mL.

B2: murine anti-IgE/M1′ antibody 47H4 (antibody)
heavy: EVKLVESGGGLVQPGGSRKLSCAASGFTFSDYGMAWVRQAPGKGPEWVAFISDLAYTIYYADTVTGRFTISRENAKNTLYLEMSSLRSEDTALYYCARDNWDAMDYWGQGTSVTVSSAKTTPPSSVYPLAPGSAAQTNSMVTLGCLVKGYFPEPVTVTWNSGSLSSGVHTFPAVLQSDLYTLSSSVTVPSSTWPSETVTCNVAHPASSTKVDKKIVPRDCGCKPCICTVPEVSSVFIFPPKPKDVLTITLTPKVTCVVVDISKDDPEVQFSWFVDDVEVHTAQTQPREEQFNSTFRSVSELPIMHQDWLNGKEFKCRVNSAAFPAPIEKTISKTKGRPKAPQVYTIPPPKEQMAKDKVSLTCMITDFFPEDITVEWQWNGQPAENYKNTQPIMDTDGSYFVYSKLNVQKSNWEAGNTFTCSVLHEGLHNHHTEKSLSHSPGK
light: DIVLTQTPLSLPVSLGDQASISCRSSQSLVHNNGNTYLHWYLQKPGQSPKLLIYKVSNRFSGVPDRFSGSGSGTDFTLKISRLEAEDLGVYFCSQNTLVPWTFGGGTKVEIKRADAAPTVSIFPPSSEQLTSGGASVVCFLNNFYPKDINVKWKIDGSERQNGVLNSWTDQDSKDSTYSMSSTLTLTKDEYERHNSYTCEATHKTSTSPIVKSFNRNEC
B2 registered an apoptosis of Daudi-IgE/Long cells (Annexin V/PI, 72 h), no crosslinker; concentration at which seen above 10 µg/mL.

B3: afucosylated humanized anti-IgE/M1′ antibody 47H4 v5 (antibody, V domains shown)
VH: EVQLVESGGGLVQPGGSLRLSCAASGFTFSDYGIAWVRQAPGKGLEWVAFISDLAYTIYYADTVTGRFTISRDNSKNTLYLQMNSLRAEDTAVYYCARDNWDAMDYWGQGTLVTVSS
VL: DIQMTQSPSSLSASVGDRVTITCRSSQSLVHNNANTYLHWYQQKPGKAPKLLIYKVSNRFSGVPSRFSGSGSGTDFTLTISSLQPEDFATYYCSQNTLVPWTFGQGTKVEIKR
modifications: here or on the partner: afucosylated Fc carbohydrate (produced in BIOWA cell lines)
For B3, the EC50 of ADCC: NK-cell lysis of BJAB cells overexpressing human IgE/M1′ (LDH release) was found to be 0.83 nM.

B4: humanized anti-IgE/M1′ antibody 47H4.v5 (antibody, V domains shown)
VH: B3 VH
VL: B3 VL
Molecule B4 yielded an EC50 of ADCC: NK-cell lysis of BJAB cells overexpressing human IgE/M1′ (LDH release) of 6.6 nM.

B5: murine anti-IgE/M1′ antibody 26A11 (antibody)
heavy: EVQLQQSGPELVKPGASVKMSCKASGYTFTDYYMMWVKQSHGKSLEWIGDINPNNYDTSYNQKFKGKATLTVDKSSSTAYIQLNSLTSEDSAVYYCASKAYWGQGTLVTVSAASTTPPSVYPLAPGSAAQTNSMVTLGCLVKGYFPEPVTVTWNSGSLSSGVHTFPAVLQSDLYTLSSSVTVPSSTWPSETVTCNVAHPASSTKVDKKIVPRDCGCKPCICTVPEVSSVFIFPPKPKDVLTITLTPKVTCVVVDISKDDPEVQFSWFVDDVEVHTAQTQPREEQFNSTFRSVSELPIMHQDWLNGKEFKCRVNSAAFPAPIEKTISKTKGRPKAPQVYTIPPPKEQMAKDKVSLTCMITDFFPEDITVEWQWNGQPAENYKNTQPIMDTDGSYFVYSKLNVQKSNWEAGNTFTCSVLHEGLHNHHTEKSLSHSPGK
light: DIQMTQTTSSLSASLGDRVTITCRSSQDISNSLNWYQQKPDGPVKLLIYSTSRLHSGVPSRFSGSGSGTDYSLTISNLEQEDLATYFCQQGHTLPWTFGGGTKVEIKRADAAPTVSIFPPSSEQLTSGGASVVCFLNNFYPKDINVKWKIDGSERQNGVLNSWTDQDSKDSTYSMSSTLTLTKDEYERHNSYTCEATHKTSTSPIVKSFNRNEC
B5 yielded an apoptosis of Daudi-IgE/Long cells, no crosslinker; concentration at which seen above 0.1 µg/mL and a percent apoptosis of Daudi-IgE/Long cells, no crosslinker of 30 to 50%.
